Biological target: T1, PUF4 RNA-binding domain (Saccharomyces cerevisiae, UniProt P25339 537-888)
T1 sequence: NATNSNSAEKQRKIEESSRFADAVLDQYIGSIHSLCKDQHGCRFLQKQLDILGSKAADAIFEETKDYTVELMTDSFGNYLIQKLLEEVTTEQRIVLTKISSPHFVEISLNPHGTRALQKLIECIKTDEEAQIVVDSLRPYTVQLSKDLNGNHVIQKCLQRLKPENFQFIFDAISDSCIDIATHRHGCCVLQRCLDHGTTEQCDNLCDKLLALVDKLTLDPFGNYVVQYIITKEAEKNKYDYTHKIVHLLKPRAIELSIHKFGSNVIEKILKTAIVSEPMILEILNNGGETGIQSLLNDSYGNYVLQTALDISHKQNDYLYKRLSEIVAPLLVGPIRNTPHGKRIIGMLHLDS
Assay: Mg; RNA-MaP; 20 mM Na-HEPES pH 7.4, 30 mM KOAc, 0.75 mM MgCl2, 0.1% Tween-20, 5% glycerol, 0.1 mg/mL BSA, 2 mM DTT; 25 C; 0.0125-409.6 nM protein
Conditions: tags: N-His6-TEV cleaved; C-SNAP kept, Cy3B-labelled; label: tethered on chip by stalled RNA polymerase

UCUCUUUGUAUACUAGUCUCUU (ssRNA) [Ic_S1_P5E.1_K5.1_C5.1_H5.1_A5.1_[T6A]_[A7C]_F5.1_[T9A]_[A10G]_T5.1]
Kd: 0.331 nM

UCUCUUUGUAACUUGUUCUCUU (ssRNA) [Ic_S1_P5E.1_K5.1_C5.1_H5.1_A5.1_[T5A]_[T6C]_[A7T]_F5.1_[T9G]_[A10T]_T5.1]
Kd: 49.4 nM

UCUCUUUGUACCACCCUCUCUU (ssRNA) [Ic_S1_P5E.1_K5.1_C5.1_H5.1_A5.1_[T5C]_[T6C]_F5.1_[T8C]_[T9C]_[A10C]_T5.1]
Kd: 523 nM

UCUCUUUGUACCAAUCUCUCUU (ssRNA) [Ic_S1_P5E.1_K5.1_C5.1_H5.1_A5.1_[T5C]_[T6C]_F5.1_[T8A]_[A10C]_T5.1]
Kd: 119 nM

UCUCUUUGUAUGUGCCUCUCUU (ssRNA) [Ic_S1_P5E.1_K5.1_C5.1_H5.1_A5.1_[T6G]_[A7T]_F5.1_[T8G]_[T9C]_[A10C]_T5.1]
Kd: 838 nM

UCUCUUUGUACCAUGAUCUCUU (ssRNA) [Ic_S1_P5E.1_K5.1_C5.1_H5.1_A5.1_[T5C]_[T6C]_F5.1_[T9G]_T5.1]
Kd: 8.03 nM

UCUCUUUCUUUAUAUCUCUU (ssRNA) [Ib_S1_P3E.1_K3.1_C3.1_H3.1_[G2C]_[A4T]_A3.1_F3.1_T3.1]
Kd: > 2300 nM

UCUCUUUGUAUGUCCCUCUCUU (ssRNA) [Ic_S1_P5E.1_K5.1_C5.1_H5.1_A5.1_[T6G]_[A7T]_F5.1_[T8C]_[T9C]_[A10C]_T5.1]
Kd: 125 nM

UCUCUUUGUAAACAACUCUCUU (ssRNA) [Ic_S1_P5E.1_K5.1_C5.1_H5.1_A5.1_[T5A]_[T6A]_[A7C]_F5.1_[T8A]_[T9A]_[A10C]_T5.1]
Kd: 88.4 nM

UCUCUUUGUACUCUGUUCUCUU (ssRNA) [Ic_S1_P5E.1_K5.1_C5.1_H5.1_A5.1_[T5C]_[A7C]_F5.1_[T9G]_[A10T]_T5.1]
Kd: 21.5 nM

UCUCUUUGUACCCCAAUCUCUU (ssRNA) [Ic_S1_P5E.1_K5.1_C5.1_H5.1_A5.1_[T5C]_[T6C]_[A7C]_F5.1_[T8C]_[T9A]_T5.1]
Kd: 1350 nM

UCUCUUUGUAUAAUGGUCUCUU (ssRNA) [Ic_S1_P5E.1_K5.1_C5.1_H5.1_A5.1_[T6A]_F5.1_[T9G]_[A10G]_T5.1]
Kd: 8.53 nM

UCUCUUUUCAUAUAUCUCUU (ssRNA) [Ib_S1_P3E.1_K3.1_C3.1_H3.1_[G2T]_[T3C]_A3.1_F3.1_T3.1]
Kd: > 2300 nM

UCUCUUUGUAGUUCCCUCUCUU (ssRNA) [Ic_S1_P5E.1_K5.1_C5.1_H5.1_A5.1_[T5G]_[A7T]_F5.1_[T8C]_[T9C]_[A10C]_T5.1]
Kd: 1650 nM

UCUCUUUGUACGAAUUUCUCUU (ssRNA) [Ic_S1_P5E.1_K5.1_C5.1_H5.1_A5.1_[T5C]_[T6G]_F5.1_[T8A]_[A10T]_T5.1]
Kd: 693 nM

UCUCUUUGUACAAACUUCUCUU (ssRNA) [Ic_S1_P5E.1_K5.1_C5.1_H5.1_A5.1_[T5C]_[T6A]_F5.1_[T8A]_[T9C]_[A10T]_T5.1]
Kd: 93.1 nM

UCUCUUUGUAUAACGUUCUCUU (ssRNA) [Ic_S1_P5E.1_K5.1_C5.1_H5.1_A5.1_[T6A]_F5.1_[T8C]_[T9G]_[A10T]_T5.1]
Kd: 34.4 nM

UCUCUUUGUAACCAUGUCUCUU (ssRNA) [Ic_S1_P5E.1_K5.1_C5.1_H5.1_A5.1_[T5A]_[T6C]_[A7C]_F5.1_[T8A]_[A10G]_T5.1]
Kd: 481 nM

UCUCUUUGUACAGUCCUCUCUU (ssRNA) [Ic_S1_P5E.1_K5.1_C5.1_H5.1_A5.1_[T5C]_[T6A]_[A7G]_F5.1_[T9C]_[A10C]_T5.1]
Kd: 13.5 nM

UCUCUUUGUAAAGCCAUCUCUU (ssRNA) [Ic_S1_P5E.1_K5.1_C5.1_H5.1_A5.1_[T5A]_[T6A]_[A7G]_F5.1_[T8C]_[T9C]_T5.1]
Kd: 1060 nM

UCUCUUUGUAUACGACUCUCUU (ssRNA) [Ic_S1_P5E.1_K5.1_C5.1_H5.1_A5.1_[T6A]_[A7C]_F5.1_[T8G]_[T9A]_[A10C]_T5.1]
Kd: 49 nM

UCUCUUUGUAUAACAUUCUCUU (ssRNA) [Ic_S1_P5E.1_K5.1_C5.1_H5.1_A5.1_[T6A]_F5.1_[T8C]_[T9A]_[A10T]_T5.1]
Kd: 12.6 nM

UCUCUUUGUAUGUUCCUCUCUU (ssRNA) [Ic_S1_P5E.1_K5.1_C5.1_H5.1_A5.1_[T6G]_[A7T]_F5.1_[T9C]_[A10C]_T5.1]
Kd: 28.6 nM

UCUCUUUGUAUAGCUCUCUCUU (ssRNA) [Ic_S1_P5E.1_K5.1_C5.1_H5.1_A5.1_[T6A]_[A7G]_F5.1_[T8C]_[A10C]_T5.1]
Kd: 111 nM

UCUCUUUGUAGCAUACUCUCUU (ssRNA) [Ic_S1_P5E.1_K5.1_C5.1_H5.1_A5.1_[T5G]_[T6C]_F5.1_[T9A]_[A10C]_T5.1]
Kd: 8.64 nM

UCUCUUUGUAUACACUUCUCUU (ssRNA) [Ic_S1_P5E.1_K5.1_C5.1_H5.1_A5.1_[T6A]_[A7C]_F5.1_[T8A]_[T9C]_[A10T]_T5.1]
Kd: 69.2 nM

UCUCUUUGUAUAUAAUCUCUU (ssRNA) [Ia_S1_P4E.1_K4.1_C4.1_H4.1_A4.1_F4.1_[T8A]_T4.1]
Kd: 4.12 nM

UCUCUUUGUAAGUUAAUCUCUU (ssRNA) [Ic_S1_P5E.1_K5.1_C5.1_H5.1_A5.1_[T5A]_[T6G]_[A7T]_F5.1_[T9A]_T5.1]
Kd: 66.4 nM

UCUCUUUGUACCCGCGUCUCUU (ssRNA) [Ic_S1_P5E.1_K5.1_C5.1_H5.1_A5.1_[T5C]_[T6C]_[A7C]_F5.1_[T8G]_[T9C]_[A10G]_T5.1]
Kd: > 2300 nM

UCUCUUUCUGUAUAUCUCUU (ssRNA) [Ib_S1_P3E.1_K3.1_C3.1_H3.1_[G2C]_[A4G]_A3.1_F3.1_T3.1]
Kd: 27.6 nM

UCUCUUUUAAUAUAUCUCUU (ssRNA) [Ib_S1_P3E.1_K3.1_C3.1_H3.1_[G2T]_[T3A]_A3.1_F3.1_T3.1]
Kd: > 2300 nM

UCUCUUUGUAAGCUCCUCUCUU (ssRNA) [Ic_S1_P5E.1_K5.1_C5.1_H5.1_A5.1_[T5A]_[T6G]_[A7C]_F5.1_[T9C]_[A10C]_T5.1]
Kd: 1500 nM
